The assay deals with T1, KBTBD4 (construct for structure determination) (human), Q9NVX7.
T1 chain: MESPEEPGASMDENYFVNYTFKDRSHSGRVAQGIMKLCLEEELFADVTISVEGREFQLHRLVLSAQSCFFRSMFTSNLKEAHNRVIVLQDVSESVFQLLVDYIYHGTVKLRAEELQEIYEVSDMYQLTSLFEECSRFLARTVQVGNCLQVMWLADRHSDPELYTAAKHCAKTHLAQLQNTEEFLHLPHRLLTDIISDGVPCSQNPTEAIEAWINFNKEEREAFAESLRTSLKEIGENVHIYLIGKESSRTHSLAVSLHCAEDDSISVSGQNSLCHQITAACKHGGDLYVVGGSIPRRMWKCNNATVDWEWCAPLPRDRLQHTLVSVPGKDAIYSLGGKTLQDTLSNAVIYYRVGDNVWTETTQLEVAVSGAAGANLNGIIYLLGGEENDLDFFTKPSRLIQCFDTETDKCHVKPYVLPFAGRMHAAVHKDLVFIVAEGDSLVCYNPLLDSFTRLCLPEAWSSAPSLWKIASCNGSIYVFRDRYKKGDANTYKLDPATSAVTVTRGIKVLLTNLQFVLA
Description: cryo-EM structure. The following applies: remark: other sources report otherwise.

Broadly, the stoichiometry N is the number of molecules, sites or subunits per partner or assembly.

B1: KBTBD4 (construct for structure determination), Q9NVX7-1 1-518 (natural protein)
chain: T1 chain
In the case of B1, the stoichiometry N came out at 2.

The values above are taken from publication doi:10.1101/2024.05.14.593897.
